Publication PMC3787020
Blank lines part the entries; values can stand above or below the substance they belong to.

Experiments:
[1] = target: C33S mutant human TGF-β1 (pro-TGF-β1 and latent TGF-β1), expressed in 293 cells (human); assay: non-reducing SDS-PAGE and western blot of immunoprecipitates; anti-GARP IP products of cell lysates; SDS-PAGE under non-reducing conditions; WB with anti-LAP antibodies
[2] = target: C33S mutant human TGF-β1 (pro-TGF-β1 and latent TGF-β1), expressed in murine BW5147 T cells (human); assay: as above
[3] = target: TGF-β1 (pro-TGF-β1 and latent TGF-β1), endogenous in human T cells (human (endogenous in human T cells)); assay: non-reducing SDS-PAGE and western blot of culture supernatants; cells incubated in serum-free medium for 24 or 48 hours; supernatants analysed by WB under non-reducing conditions with anti-GARP and anti-LAP antibodies
[4] = target: wild type human TGF-β1 (pro-TGF-β1 and latent TGF-β1), expressed in 293 cells (human); assay: as above

stoichiometry N [1]: 2
Substance: C33S mutant human TGF-β1 (pro-TGF-β1 and latent TGF-β1), expressed in 293 cells (ligand)

stoichiometry N [2]: 2
Substance: C33S mutant human TGF-β1 (pro-TGF-β1 and latent TGF-β1), expressed in murine BW5147 T cells (ligand)

stoichiometry N [3]: 2
Substance: TGF-β1 (pro-TGF-β1 and latent TGF-β1), endogenous in human T cells (ligand)

stoichiometry N [4]: 2
Substance: wild type human TGF-β1 (pro-TGF-β1 and latent TGF-β1), expressed in 293 cells (ligand)
